Assay results taken from article PMC7969741.
Non-standard residues stand in square brackets, D forms with d.

Molecular target: αV integrin (human (endogenous in SV40 immortalized human chondrocytes))

## cyclo(RGD[dF]K) (also: conjugated to 3' end of Cy3-labelled 18-nt ssDNA) [cyclic peptide RGDfK (cRGDfK)]
  tension gauge tether (TGT) assay: rupture of RGDfK-dsDNA tethers of 43 and 54 pN tension tolerance and loss of cell attachment, SV40 chondrocytes prechallenged with shear stress: > 43 pN
